This passage reports Kd results from PMC8247599.

Data set [1] relates to aTm1 252-334 (Drosophila melanogaster). The data set can be described thus: EMSA. On the technique in general: A gel shift assay detects complexes by their altered migration in electrophoresis.
Data set [2] deals with aTm1^252–334 (Drosophila melanogaster). The data set can be described thus: ITC. In general terms: Isothermal titration calorimetry measures the heat released or taken up as one component is titrated into another.
Data set [3] has as its target GST-tagged Khc^848–941 (Drosophila) (UniProt P17210). The data set can be described thus: SPR. For orientation: SPR reads the build-up and loss of mass on a sensor chip optically.

pKd: −log10 of the molar value.

Chain of GST-tagged Khc^848–941 (Drosophila) (P17210 848-941): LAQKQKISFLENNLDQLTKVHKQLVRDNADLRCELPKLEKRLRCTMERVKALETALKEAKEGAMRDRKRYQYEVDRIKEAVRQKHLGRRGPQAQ

As usually defined, the pKd is the negative decadic logarithm of the Kd, by convention in mol/L. The low end stands for a high Kd, the high end for a low Kd. For the substance “UUUUUUUUUUUUUUUUUUUUUUUUU [oligo-(U25) RNA]”, the negative logarithm of the Kd (pKd) in data set [1] was less than 5.00.

On to aTm1^252–334 (domain or fragment), for which the pKd in data set [2] was 5.00; in data set [3], 6.85.
